Laboratory results taken from patent publication US7935785B2, “Selective substrates for matrix metalloproteinases” (Sanford-Burnham Medical Research Institute, priority 2001, dated 2011).

Key:
MMP-2 = target: T1, MMP-2 (Homo sapiens, UniProt P08253); assay: Cleavage of recombinant Eph receptor-Fc fusion proteins, SDS-PAGE; format: biochemical; conditions: 1.8 μM fusion protein, 280 nM MMP-2, 4 hours, 37° C.
T1 construct: the cDNA encoding the catalytic domain of MMP-2 was generated by PCR; made in house; host or cells: HEK 293 cells
T1 sequence (P08253 110-465 limits assumed): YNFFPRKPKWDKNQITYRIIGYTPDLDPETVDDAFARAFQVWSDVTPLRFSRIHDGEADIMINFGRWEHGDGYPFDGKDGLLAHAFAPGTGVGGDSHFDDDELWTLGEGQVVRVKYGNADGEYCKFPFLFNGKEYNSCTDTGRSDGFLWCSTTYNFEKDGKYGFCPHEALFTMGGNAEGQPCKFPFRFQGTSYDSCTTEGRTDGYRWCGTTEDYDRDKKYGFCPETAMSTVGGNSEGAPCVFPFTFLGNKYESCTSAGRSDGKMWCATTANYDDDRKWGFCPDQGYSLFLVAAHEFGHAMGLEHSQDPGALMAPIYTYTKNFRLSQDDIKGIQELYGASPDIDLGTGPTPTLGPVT
Procedure: (§1) Recombinant fusion proteins between EphB1, EphB2 and the Fc domain of IgG were purchased from R&D Systems Inc. In these constructs, the extracellular domain of rat EphB1 (amino acid residues 1-538) and mouse EphB2 (amino acid residues 1-548) are fused to the Fc region of human IgG via a short polypeptide linker. The fusion proteins (1.8 μM) were incubated for 4 hours at 37° C. with 280 nM of either MMP-2 or MMP-9. Following incubation, samples were resolved by 10% SDS-PAGE, and samples were visualized by Coomassie staining. The N-terminus of the cleaved Eph B1 was determined by automated Edman degradation of protein blotted to PVDF membranes.
(§2) The Eph B1 and Eph B2 fusion proteins were incubated with equimolar amounts (280 nM) of MMP-2 and MMP-9 for four hours. The extent of hydrolysis was gauged by SDS-PAGE (FIG. 3). […] The extent of cleavage by MMP-9 was far lower (lane 3). […] The site of hydrolysis within Eph B1 was determined by sequencing the N-terminus of one of the released fragments. […] This is one of the predicted cleavage sites in EphB1. These findings illustrate that motifs found to be selective for MMP-2 by substrate phage display, can act as selective substrates within the context of whole proteins. This experiment also illustrates that the three dimensional conformation of the putative cleavage site will also control the extent of hydrolysis.

MMP-9 = target: T2, MMP-9 (Homo sapiens, UniProt P14780); assay: as above; format: biochemical; conditions: 1.8 μM fusion protein, 280 nM MMP-9, 4 hours, 37° C.
T2 construct: a recombinant form of the catalytic domain of MMP-9 expressed in HEK 293 cells; made in house; host or cells: HEK 293 cells
T2 sequence (P14780 94-444 limits assumed): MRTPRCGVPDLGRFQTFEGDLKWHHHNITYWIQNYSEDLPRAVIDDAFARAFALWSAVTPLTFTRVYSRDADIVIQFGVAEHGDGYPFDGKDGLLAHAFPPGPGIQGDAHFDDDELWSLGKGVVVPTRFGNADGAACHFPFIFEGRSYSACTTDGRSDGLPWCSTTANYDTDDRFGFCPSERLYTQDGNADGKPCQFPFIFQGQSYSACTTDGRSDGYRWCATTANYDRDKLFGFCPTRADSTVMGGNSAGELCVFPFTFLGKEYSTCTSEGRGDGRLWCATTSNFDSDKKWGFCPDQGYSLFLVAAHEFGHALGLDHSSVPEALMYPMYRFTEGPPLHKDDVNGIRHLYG
Procedure: as §1, §2

Molecule	extent of hydrolysis by MMP-2 (SDS-PAGE) (MMP-2)	extent of hydrolysis by MMP-9 (SDS-PAGE) (MMP-9)
Eph B2 fusion protein: extracellular domain of mouse EphB2 (residues 1-548) fused to Fc region of human IgG, R&D Systems (protein, left off: small tags and cut ends; a dimerising Fc or GST, extracellular domain of mouse EphB2 (residues 1-548) fused to Fc region of human IgG, R&D Systems) VEETLMDSTTATAELGWMVHPPSGWEEVSGYDENMNTIRTYQVCNVFESSQNNWLRTKFIRRRGAHRIHVEMKFSVRDCSSIPSVPGSCKETFNLYYYEADFDLATKTFPNWMENPWVKVDTIAADESFSQVDLGGRVMKINTEVRSFGPVSRNGFYLAFQDYGGCMSLIAVRVFYRKCPRIIQNGAIFQETLSGAESTSLVAARGSCIANAEEVDVPIKLYCNGDGEWLVPIGRCMCKAGFEAVENGTVCRGCPSGTFKANQGDEACTHCPINSRTTSEGATNCVCRNGYYRADLDPLDMPCTTIPSAPQAVISSVNETSLMLEWTPPRDSGGREDLVYNIICKSCGSGRGACTRCGDNVQYAPRQLGLTEPRIYISDLLAHTQYTFEIQAVNGVTDQSPFSPQFASVNITTNQAAPSAVSIMHQVSRTVDSITLSWSQPDQPNGVILDYELQYYEKELSEYNATAIKSPTNTVTVQGLKAGAIYVFQVRARTVAGYGRYSGKMYFQTMTEAEYQTSIKEKLPLIVGSS	Neither protease cleaved	Neither protease cleaved
Eph B1-Fc fusion protein: extracellular domain of rat EphB1 (residues 1-538) fused to Fc region of human IgG, R&D Systems (protein, left off: small tags and cut ends; a dimerising Fc or GST, extracellular domain of rat EphB1 (residues 1-538) fused to Fc region of human IgG, R&D Systems) MEETLMDTRTATAELGWTANPASGWEEVSGYDENLNTIRTYQVCNVFEPNQNNWLLTTFINRRGAHRIYTEMRFTVRDCSSLPNVPGSCKETFNLYYYETDSVIATKKSAFWSEAPYLKVDTIAADESFSQVDFGGRLMKVNTEVRSFGPLTRNGFYLAFQDYGACMSLLSVRVFFKKCPSIVQNFAVFPETMTGAESTSLVIARGTCIPNAEEVDVPIKLYCNGDGEWMVPIGRCTCKAGYEPENSVACKACPAGTFKASQEAEGCSHCPSNSRSPSEASPICTCRTGYYRADFDPPEVACTSVPSGPRNVISIVNETSIILEWHPPRETGGRDDVTYNIICKKCRADRRSCSRCDDNVEFVPRQLGLTECRVSISSLWAHTPYTFDIQAINGVSSKSPFPPQHVSVNITTNQAAPSTVPIMHQVSATMRSITLSWPQPEQPNGIILDYEIRYYEKEHNEFNSSMARSQTNTARIDGLRPGMVYVVQVRARTVAGYGKFSGKMCFQTLTDDDYKSELREQ	almost quantitatively cleaved	far lower
